T1: CXCR2 (UniProt P25025 1-360, limits assumed)
T1 construct: whole, on cells
T1 sequence (looked up): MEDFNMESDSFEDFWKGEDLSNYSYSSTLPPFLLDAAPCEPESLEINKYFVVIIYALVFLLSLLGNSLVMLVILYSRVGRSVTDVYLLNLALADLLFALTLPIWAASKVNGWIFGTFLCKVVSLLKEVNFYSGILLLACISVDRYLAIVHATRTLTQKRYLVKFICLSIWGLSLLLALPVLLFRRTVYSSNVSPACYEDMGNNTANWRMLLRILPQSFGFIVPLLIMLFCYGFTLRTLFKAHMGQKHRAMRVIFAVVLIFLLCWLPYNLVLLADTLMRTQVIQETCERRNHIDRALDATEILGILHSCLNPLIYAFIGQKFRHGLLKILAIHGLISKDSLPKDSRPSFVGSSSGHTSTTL

B1: monoclonal antibody 11G8 (antibody, V domains shown)
VH: EVKLVESGGDLVQPGGSLKLSCATSGFTFSDYYMFWVRQTPEKRLEWVAYITNGGDRSYYSDTVTGRFIISRDNAKNTLYLQMSRLKSEDTAMYYCARQGNWAAWFVYWGQGTLVTVSA
VL: DVLMTQTPLSLPVSLGDQASISCRSSHYIVHSDGNTYLEWYLQKPGQSPKLLIYKVSNRFSGVPDRFSGSGSGTDFTLKISRVEAEDLGIYYCFQGSHVPLTFGAGTKLELKR
notes: Mouse hybridoma monoclonal antibody raised by gene gun inoculation with CCX-CKR2 cDNA
B2: monoclonal antibody 6E10 (antibody, V domains shown)
VH: EVKLDETGGGLVQPGRPMKLSCVASGFTFSDYWMNWVRQSPEKGLEWVGQIRNKPYNYETYYSDSVKGRFTISRDDSKSSVYLQMNNLRTEDTGIYYCTSLRYWGQGTLVTVSA
VL: DIVMTQSPSSLTVTAGEKVTMSCKSSHSLLNSGIQKNFLTWYQQKPGQPPKVLIYWAFTRESGVPERFTGSGSGTDFTLTISSVQAEDLAVYYCQSDYTYPFTFGSGTKLEIKR
notes: as for B1

Tests used:
CXCR2 = molecular target: T1, CXCR2; assay: flow cytometry on transfected HEK 293 cells
[1] = molecular target: T2, mouse homolog of CCX CKR2 (mouse, UniProt P56485 1-362); assay: IHC on fixed paraffin embedded tissue sections
T2 construct: whole, on cells; also called mouse CCX-CKR2
T2 sequence (P56485 whole entry): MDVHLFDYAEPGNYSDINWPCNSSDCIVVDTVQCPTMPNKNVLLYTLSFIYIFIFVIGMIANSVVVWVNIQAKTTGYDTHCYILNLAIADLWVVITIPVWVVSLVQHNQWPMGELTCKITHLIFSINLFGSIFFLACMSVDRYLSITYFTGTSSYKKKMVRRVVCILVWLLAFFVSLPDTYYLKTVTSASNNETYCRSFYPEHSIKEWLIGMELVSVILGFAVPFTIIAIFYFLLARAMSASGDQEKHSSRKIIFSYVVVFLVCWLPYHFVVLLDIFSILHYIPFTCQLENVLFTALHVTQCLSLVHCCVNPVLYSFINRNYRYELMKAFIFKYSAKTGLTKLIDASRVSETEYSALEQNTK

Binder	binding result (CXCR2)	binding result [1]
B1	no binding	binds
B2	no binding	binds
